Values of other authors in article PMC11815838.

Biological target: Her2 (ErbB2) ectodomain (UniProt P04626)
Assay: SPR (surface plasmon resonance)
Conditions: not stated (pH 7.4 and pH 5.0 running conditions; buffers given only in ref 2)

Row | KD (pH 5.0) [nM] | KD (pH 7.4) [nM] | Substance
1 | 16 | 3.5 | bH1 Fab variant P1 (H-N28H) H-N28H
2 | 1200 | 120 | bH1 Fab variant P2 (H-Y33H) H-Y33H
3 |  | 170 | bH1 Fab variant P4 (H-Y56H) H-Y56H
4 | 98 | 310 | bH1 Fab variant P5 (H-R58H) H-R58H
5 |  | 10 | bH1 Fab variant P6 (H-Y100aH) H-Y100aH
6 | 17 | 5.7 | bH1 Fab variant P7 (L-R30aH) L-R30aH
7 | 9.9 | 3.4 | bH1 Fab variant P8 (L-S30bH) L-S30bH
